Measurements: patent US20250051445A1

Assays:
[1] = molecular target: α/β TCR/CD3 complex on Jurkat, Clone E6-1 cells (human) (UniProt P07766); experiment: flow cytometry on Jurkat Clone E6-1 cells, Fab titration 10 µg/ml to 10 ng/ml; AUC of MFI vs log concentration, gain vs TPP-1374
[2] = molecular target: α/β TCR/CD3 complex on Jurkat, Clone E6-1 cells (human) (UniProt P07766); experiment: flow cytometry on Jurkat Clone E6-1 cells, Fab titration 10 µg/ml to 10 ng/ml; EC50 of MFI, fold decrease vs TPP-1374

Sequence of UniProt P07766 (P07766 23-207, chain 1 of 4): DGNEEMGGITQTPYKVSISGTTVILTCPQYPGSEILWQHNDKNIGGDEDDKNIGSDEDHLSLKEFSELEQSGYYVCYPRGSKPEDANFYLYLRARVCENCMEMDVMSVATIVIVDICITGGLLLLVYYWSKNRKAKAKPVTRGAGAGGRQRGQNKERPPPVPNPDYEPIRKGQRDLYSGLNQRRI
Sequence of UniProt P07766 (P09693 23-182, chain 2 of 4, further chain): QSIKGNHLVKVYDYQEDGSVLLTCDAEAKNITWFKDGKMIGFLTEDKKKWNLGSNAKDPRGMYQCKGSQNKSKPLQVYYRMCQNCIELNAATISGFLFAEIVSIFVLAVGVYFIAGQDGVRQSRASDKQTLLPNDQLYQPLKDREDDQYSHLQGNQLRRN
Sequence of UniProt P07766 (P04234 22-171, chain 3 of 4, further chain): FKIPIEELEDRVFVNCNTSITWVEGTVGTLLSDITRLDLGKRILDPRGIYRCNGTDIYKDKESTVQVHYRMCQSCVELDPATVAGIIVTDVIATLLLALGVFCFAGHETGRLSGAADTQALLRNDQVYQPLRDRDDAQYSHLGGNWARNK
Sequence of UniProt P07766 (P20963 22-164, chain 4 of 4, further chain): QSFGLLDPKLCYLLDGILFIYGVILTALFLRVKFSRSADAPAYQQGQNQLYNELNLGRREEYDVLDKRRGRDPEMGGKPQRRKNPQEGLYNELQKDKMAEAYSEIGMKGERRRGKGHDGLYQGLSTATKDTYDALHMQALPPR

% gain in binding AUC [1] | fold decrease in EC50 [2] | Binder
245% | 4.7 fold | TPP-1391 Fab fragment (Fab, V domains shown) VH: EVQLVQSGAEVKKPGASVKVSCKASGYKFTSYVMHWVRQAPGQGLEWMGYINPYRDVTKYAEKFQGRVTLTSDTSTSTAYMELSSLRSEDTAVYYCARGSYYDYEGFVYWGQGTLVTVSS VL: QIQMTQSPSSLSASVGDRVTITCSATSSVSYMHWYQQKPGKAPKRWIYDTSKLASGVPSRFSGSGSGTDYTLTISSLQPEDAATYYCQQWSSNPLTFGGGTKVEIKR
270% | 5.5 fold | TPP-1390 Fab fragment (Fab, V domains shown) VH: EVQLVQSGAEVKKPGASVKVSCKASGYKFTSYVMHWVRQAPGQGLEWMGYINPRNDVTKYAEKFQGRVTLTSDTSTSTAYMELSSLRSEDTAVYYCARGSYYDYEGFVYWGQGTLVTVSS VL: QIQMTQSPSSLSASVGDRVTITCSATSSVSYMHWYQQKPGKAPKRWIYDTSKLASGVPSRFSGSGSGTDYTLTISSLQPEDAATYYCQQWSSNPLTFGGGTKVEIKR
14% | 3.2 fold | TPP-1387 Fab fragment (Fab, V domains shown) VH: EVQLVQSGAEVKKPGASVKVSCKASGYKFTSYVMHWVRQAPGQGLEWMGYINPYNDVTKYAEKFQGRVTLTSDTSTSTAYMELSSLRSEDTAVYYCARGSYYDYEGFVYWGQGTLVTVSS VL: QIQMTQSPSSLSASVGDRVTITCSATSSVSYMHWYQQKPGKAPKRWIYDTSKLASGVPSRFSGSGSGTDYTLTISSLQPEDAATYYCQQWSSNPLTFGGGTKVEIKR
226% | 13.9 fold | TPP-1393 Fab fragment (Fab, V domains shown) VH: EVQLVQSGAEVKKPGASVKVSCKASGYKFTSYVMHWVRQAPGQGLEWMGYINPYNDVTKYAEKFQGRVTLTSDTSTSTAYMELSSLRSEDTAVYYCARGSYYDYEGFVYWGQGTLVTVSS VL: QIQMTQSPSSLSASVGDRVTITCSATSSVSYMHWYQQKPGKAPKRWIYDTSKLARGVPSRFSGSGSGTDYTLTISSLQPEDAATYYCQQWSSNPLTFGGGTKVEIKR
813% | 16.6 fold | TPP-1392 Fab fragment (Fab, V domains shown) VH: EVQLVQSGAEVKKPGASVKVSCKASGYKFTSYVMHWVRQAPGQGLEWMGYINPRNDVTKYAEKFQGRVTLTSDTSTSTAYMELSSLRSEDTAVYYCARGSYYDYEGFVYWGQGTLVTVSS VL: QIQMTQSPSSLSASVGDRVTITCSATSSVSYMHWYQQKPGKAPKRWIYDTSKLARGVPSRFSGSGSGTDYTLTISSLQPEDAATYYCQQWSSNPLTFGGGTKVEIKR
423% | 31.8 fold | TPP-1389 Fab fragment (Fab, V domains shown) VH: EVQLVQSGAEVKKPGASVKVSCKASGYKFTRYVMHWVRQAPGQGLEWMGYINPYNDVTKYAEKFQGRVTLTSDTSTSTAYMELSSLRSEDTAVYYCARGSYYDYEGFVYWGQGTLVTVSS VL: QIQMTQSPSSLSASVGDRVTITCSATSSVSYMHWYQQKPGKAPKRWIYDTSKLARGVPSRFSGSGSGTDYTLTISSLQPEDAATYYCQQWSSNPLTFGGGTKVEIKR
273% | 8.1 fold | TPP-1388 Fab fragment (Fab, V domains shown) VH: EVQLVQSGAEVKKPGASVKVSCKASGYKFTRYVMHWVRQAPGQGLEWMGYINPYNDVTKYAEKFQGRVTLTSDTSTSTAYMELSSLRSEDTAVYYCARGSYYDYEGFVYWGQGTLVTVSS VL: QIQMTQSPSSLSASVGDRVTITCSATSSVSYMHWYQQKPGKAPKRWIYDTSKLASGVPSRFSGSGSGTDYTLTISSLQPEDAATYYCQQWSSNPLTFGGGTKVEIKR

Second part, the binder before the results:

Binder | % gain in binding AUC [1] | fold decrease in EC50 [2]
TPP-1383 Fab fragment (Fab, V domains shown) VH: EVQLVQSGAEVKKPGASVKVSCKASGYKFTSYVMHWVRQAPGQGLEWMGYINPYNDVTKYAEKFQGRVTLTSDTSTSTAYMELSSLRSEDTAVHYCARGSYYDYEGFVYWGQGTLVTVSS VL: QIQMTQSPSSLSASVGDRVTITCSATSSVKYMHWYQQKPGKAPKRWIYDTSKLASGVPSRFSGSGSGTDYTLTISSLQPEDAATYYCQQWSSNPLTFGGGTKVEIKR | -73% | 
TPP-1380 Fab fragment (Fab, V domains shown) VH: EVQLVQSGAEVKKPGASVKVSCKASGYKFTSYVMHWVRQAPGQGLEWMGYINPYRDVTKYAEKFQGRVTLTSDTSTSTAYMELSSLRSEDTAVHYCARGSYYDYEGFVYWGQGTLVTVSS VL: QIQMTQSPSSLSASVGDRVTITCSATSSVSYMHWYQQKPGKAPKRWIYDTSKLASGVPSRFSGSGSGTDYTLTISSLQPEDAATYYCQQWSSNPLTFGGGTKVEIKR | 18% | 2.9 fold
TPP-1378 Fab fragment (Fab, V domains shown) VH: EVQLVQSGAEVKKPGASVKVSCKASGYKFTSYVMHWVRQAPGQGLEWMGYINPRNDVTKYAEKFQGRVTLTSDTSTSTAYMELSSLRSEDTAVHYCARGSYYDYEGFVYWGQGTLVTVSS VL: QIQMTQSPSSLSASVGDRVTITCSATSSVSYMHWYQQKPGKAPKRWIYDTSKLASGVPSRFSGSGSGTDYTLTISSLQPEDAATYYCQQWSSNPLTFGGGTKVEIKR | 79% | 
TPP-1384 Fab fragment (Fab, V domains shown) VH: EVQLVQSGAEVKKPGASVKVSCKASGYKFTSYVMHWVRQAPGQGLEWMGYINPYNDVTKYAEKFQGRVTLTSDTSTSTAYMELSSLRSEDTAVHYCARGSYYDYEGFVYWGQGTLVTVSS VL: QIQMTQSPSSLSASVGDRVTITCSATSSVSYMHWYQQKPGKAPKRWIYDTSKLAKGVPSRFSGSGSGTDYTLTISSLQPEDAATYYCQQWSSNPLTFGGGTKVEIKR | 203% | 4.1 fold
TPP-1360 Fab fragment (Fab, V domains shown) VH: EVQLVQSGAEVKKPGASVKVSCKASGYKFTRYVMHWVRQAPGQGLEWMGYINPYNDVTKYAEKFQGRVTLTSDTSTSTAYMELSSLRSEDTAVHYCARGSYYDYEGFVYWGQGTLVTVSS VL: QIQMTQSPSSLSASVGDRVTITCSATSSVSYMHWYQQKPGKAPKRWIYDTSKLASGVPSRFSGSGSGTDYTLTISSLQPEDAATYYCQQWSSNPLTFGGGTKVEIKR | 144% | 5.7 fold
TPP-1377 Fab fragment (Fab, V domains shown) VH: EVQLVQSGAEVKKPGASVKVSCKASGYKFTKYVMHWVRQAPGQGLEWMGYINPYNDVTKYAEKFQGRVTLTSDTSTSTAYMELSSLRSEDTAVHYCARGSYYDYEGFVYWGQGTLVTVSS VL: QIQMTQSPSSLSASVGDRVTITCSATSSVSYMHWYQQKPGKAPKRWIYDTSKLASGVPSRFSGSGSGTDYTLTISSLQPEDAATYYCQQWSSNPLTFGGGTKVEIKR | 56% | 4.1 fold
TPP-1376 Fab fragment (Fab, V domains shown) VH: EVQLVQSGAEVKKPGASVKVSCKASGYKFKSYVMHWVRQAPGQGLEWMGYINPYNDVTKYAEKFQGRVTLTSDTSTSTAYMELSSLRSEDTAVHYCARGSYYDYEGFVYWGQGTLVTVSS VL: QIQMTQSPSSLSASVGDRVTITCSATSSVSYMHWYQQKPGKAPKRWIYDTSKLASGVPSRFSGSGSGTDYTLTISSLQPEDAATYYCQQWSSNPLTFGGGTKVEIKR | 83% | 2.8 fold
TPP-1363 Fab fragment (Fab, V domains shown) VH: EVQLVQSGAEVKKPGASVKVSCKASGYKFTSYVMHWVRQAPGQGLEWMGYINPYKDVTKYAEKFQGRVTLTSDTSTSTAYMELSSLRSEDTAVYYCARGSYYDYEGFVYWGQGTLVTVSS VL: QIQMTQSPSSLSASVGDRVTITCSATSSVSYMHWYQQKPGKAPKRWIYDTSKLASGVPSRFSGSGSGTDYTLTISSLQPEDAATYYCQQWSSNPLTFGGGTKVEIKR | 380% | 7.3 fold
TPP-1372 Fab fragment (Fab, V domains shown) VH: EVQLVQSGAEVKKPGASVKVSCKASGYKFTSYVMHWVRQAPGQGLEWMGYINPYKDVTKYAEKFQGRVTLTSDTSTSTAYMELSSLRSEDTAVYYCARGSYYDYEGFVYWGQGTLVTVSS VL: QIQMTQSPSSLSASVGDRVTITCSATSSVSYMHWYQQKPGKAPKRWIYDTSKLARGVPSRFSGSGSGTDYTLTISSLQPEDAATYYCQQWSSNPLTFGGGTKVEIKR | 246% | 21.5 fold
TPP-1379 Fab fragment (Fab, V domains shown) VH: EVQLVQSGAEVKKPGASVKVSCKASGYKFTSYVMHWVRQAPGQGLEWMGYINPKNDVTKYAEKFQGRVTLTSDTSTSTAYMELSSLRSEDTAVHYCARGSYYDYEGFVYWGQGTLVTVSS VL: QIQMTQSPSSLSASVGDRVTITCSATSSVSYMHWYQQKPGKAPKRWIYDTSKLASGVPSRFSGSGSGTDYTLTISSLQPEDAATYYCQQWSSNPLTFGGGTKVEIKR | 1% | 
TPP-1381 Fab fragment (Fab, V domains shown) VH: EVQLVQSGAEVKKPGASVKVSCKASGYKFTSYVMHWVRQAPGQGLEWMGYINPYKDVTKYAEKFQGRVTLTSDTSTSTAYMELSSLRSEDTAVHYCARGSYYDYEGFVYWGQGTLVTVSS VL: QIQMTQSPSSLSASVGDRVTITCSATSSVSYMHWYQQKPGKAPKRWIYDTSKLASGVPSRFSGSGSGTDYTLTISSLQPEDAATYYCQQWSSNPLTFGGGTKVEIKR | 98% | 8.2 fold
TPP-1382 Fab fragment (Fab, V domains shown) VH: EVQLVQSGAEVKKPGASVKVSCKASGYKFTSYVMHWVRQAPGQGLEWMGYINPYNDVTKYAEKFQGRVTLTSDTSTSTAYMELSSLRSEDTAVHYCARGSYYDYEGFVYWGQGTLVTVSS VL: QIQMTQSPSSLSASVGDRVTITCSATSSVRYMHWYQQKPGKAPKRWIYDTSKLASGVPSRFSGSGSGTDYTLTISSLQPEDAATYYCQQWSSNPLTFGGGTKVEIKR | -66% | 
TPP-1367 Fab fragment (Fab, V domains shown) VH: EVQLVQSGAEVKKPGASVKVSCKASGYKFTSYVMHWVRQAPGQGLEWMGYINPYNDVTKYAEKFQGRVTLTSDTSTSTAYMELSSLRSEDTAVHYCARGSYYDYEGFVYWGQGTLVTVSS VL: QIQMTQSPSSLSASVGDRVTITCSATSSVSYMHWYQQKPGKAPKRWIYDTSKLARGVPSRFSGSGSGTDYTLTISSLQPEDAATYYCQQWSSNPLTFGGGTKVEIKR | 220% | 8.8 fold
